Here are results for 66 molecules from US7067619 (LA JOLLA CANCER RESEARCH FOUNDATION, dated 2006).

Sequence of αvβ5 integrin isolated from human placental extract (P06756 31-1048, chain 1 of 2): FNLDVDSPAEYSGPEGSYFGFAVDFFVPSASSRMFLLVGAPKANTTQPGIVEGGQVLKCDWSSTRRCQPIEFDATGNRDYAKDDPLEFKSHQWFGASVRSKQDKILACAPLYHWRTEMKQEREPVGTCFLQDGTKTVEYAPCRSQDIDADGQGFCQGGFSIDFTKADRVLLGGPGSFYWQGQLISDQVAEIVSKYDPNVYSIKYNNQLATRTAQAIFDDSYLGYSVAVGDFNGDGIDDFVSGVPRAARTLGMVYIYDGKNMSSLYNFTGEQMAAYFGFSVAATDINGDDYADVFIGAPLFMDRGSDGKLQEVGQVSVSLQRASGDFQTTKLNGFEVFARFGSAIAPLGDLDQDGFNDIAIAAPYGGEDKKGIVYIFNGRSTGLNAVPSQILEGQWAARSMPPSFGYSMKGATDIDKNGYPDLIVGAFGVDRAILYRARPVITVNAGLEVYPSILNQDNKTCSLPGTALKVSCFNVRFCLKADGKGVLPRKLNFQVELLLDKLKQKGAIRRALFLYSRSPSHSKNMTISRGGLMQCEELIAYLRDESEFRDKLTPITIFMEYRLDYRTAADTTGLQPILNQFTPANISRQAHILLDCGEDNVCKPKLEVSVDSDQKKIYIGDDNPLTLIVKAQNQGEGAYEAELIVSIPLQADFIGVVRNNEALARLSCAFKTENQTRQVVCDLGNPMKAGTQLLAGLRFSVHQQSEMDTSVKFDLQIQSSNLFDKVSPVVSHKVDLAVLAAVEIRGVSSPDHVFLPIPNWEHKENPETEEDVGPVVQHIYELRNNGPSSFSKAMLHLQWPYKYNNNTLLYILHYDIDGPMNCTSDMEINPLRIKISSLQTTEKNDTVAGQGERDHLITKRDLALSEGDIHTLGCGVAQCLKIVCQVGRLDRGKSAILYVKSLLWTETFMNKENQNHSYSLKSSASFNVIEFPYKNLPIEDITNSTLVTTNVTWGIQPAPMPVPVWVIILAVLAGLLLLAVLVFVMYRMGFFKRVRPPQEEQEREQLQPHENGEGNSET
Sequence of αvβ5 integrin isolated from human placental extract (P18084 24-799, chain 2 of 2): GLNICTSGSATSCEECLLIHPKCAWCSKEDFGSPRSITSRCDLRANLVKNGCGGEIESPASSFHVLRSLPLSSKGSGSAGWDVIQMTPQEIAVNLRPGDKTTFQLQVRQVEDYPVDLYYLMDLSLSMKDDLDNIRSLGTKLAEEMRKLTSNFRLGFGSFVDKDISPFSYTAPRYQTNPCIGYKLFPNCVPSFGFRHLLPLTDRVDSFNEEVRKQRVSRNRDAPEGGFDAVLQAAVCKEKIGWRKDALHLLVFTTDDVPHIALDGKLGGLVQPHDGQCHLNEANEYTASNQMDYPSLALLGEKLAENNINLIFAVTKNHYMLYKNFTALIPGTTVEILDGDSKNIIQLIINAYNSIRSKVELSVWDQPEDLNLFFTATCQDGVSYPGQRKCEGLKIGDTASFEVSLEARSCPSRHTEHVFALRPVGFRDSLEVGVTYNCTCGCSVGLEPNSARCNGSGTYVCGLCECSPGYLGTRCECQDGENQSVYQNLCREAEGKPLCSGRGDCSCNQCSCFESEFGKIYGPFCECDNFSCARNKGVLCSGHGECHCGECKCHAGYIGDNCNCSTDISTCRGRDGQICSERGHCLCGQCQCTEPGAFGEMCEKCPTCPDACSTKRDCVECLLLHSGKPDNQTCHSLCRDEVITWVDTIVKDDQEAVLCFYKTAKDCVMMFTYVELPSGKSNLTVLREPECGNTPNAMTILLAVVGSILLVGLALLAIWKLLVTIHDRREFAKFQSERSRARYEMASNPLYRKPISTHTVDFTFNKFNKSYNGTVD

In the first assay the target is αvβ5 integrin isolated from human placental extract (human, UniProt P06756 31-1048; P18084 24-799). The assay is described as follows: phage panning on coated integrin. The method, then:
(§1) In the first panning, the integrins were coated at 5 µg per well, and the library pool was incubated for 4 hours at 25° C. in TBS buffer containing 1% bovine serum albumin and 1 mM MnCl_2 (α_5β_1, α_vβ_3) 1 mM MgCl_2 ($\alphaIIb\beta_3$) or 1 mM CaCl_2 (α_vβ_5).
CEGRGDSFC (on fuse 5 phage, fused to pIII) [CEGRGDSFC phage]: the binding result is given as “binds”.

Regarding CEPRGDSFC (on fuse 5 phage, fused to pIII) [CEPRGDSFC phage], the binding result is listed as “binds”.

As to CISRGDTFC (on fuse 5 phage, fused to pIII) [CISRGDTFC phage (αvβ5 selection)], the binding result is “binds”.

CVTRGDNFC (on fuse 5 phage, fused to pIII) [CVTRGDNFC phage]: the binding result was “binds”.

With CVLRGDNFC (on fuse 5 phage, fused to pIII) [CVLRGDNFC phage], the binding result is on record as “binds”.

In the case of CLVRGDSLC (on fuse 5 phage, fused to pIII) [CLVRGDSLC phage], the binding result is listed as “binds”.

With CELRGDSAC (on fuse 5 phage, fused to pIII) [CELRGDSAC phage], the binding result is on record as “binds”.

Consider CYARGDSFC (on fuse 5 phage, fused to pIII) [CYARGDSFC phage], for which the binding result is “binds”.

As to CVRRGDVFC (on fuse 5 phage, fused to pIII) [CVRRGDVFC phage], the binding result was “binds”.

Take CEMRGDTFC (on fuse 5 phage, fused to pIII) [CEMRGDTFC phage]: the binding result is recorded as “binds”.

CWTRGDSFC (on fuse 5 phage, fused to pIII) [CWTRGDSFC phage]: the binding result was “binds”.

On to CGRGDTPTC (on fuse 5 phage, fused to pIII) [CGRGDTPTC phage], for which the binding result is “binds”.

Regarding CDLRGDTYC (on fuse 5 phage, fused to pIII) [CDLRGDTYC phage], the binding result is “binds”.

For CRGDTYLIC (on fuse 5 phage, fused to pIII) [CRGDTYLIC phage], the binding result was “binds”.

In the case of CVVRGDTFC (on fuse 5 phage, fused to pIII) [CVVRGDTFC phage], the binding result is “binds”.

Turning to CHTRGDTFC (on fuse 5 phage, fused to pIII) [CHTRGDTFC phage], the binding result is “binds”.

CRGDVFLC (on fuse 5 phage, fused to pIII) [CRGDVFLC phage]: the binding result is reported as “binds”.

The target in the next assay is T1, αvβ3 integrin isolated from human placental extract (human, UniProt P06756 31-1048; P05106 27-788).
T1 construct: isolated on GRGDSPK-Sepharose; said to be primarily αvβ3
T1 sequence (P06756 31-1048, chain 1 of 2): as the sequence (P06756 31-1048, chain 1 of 2) above
T1 sequence (P05106 27-788, chain 2 of 2): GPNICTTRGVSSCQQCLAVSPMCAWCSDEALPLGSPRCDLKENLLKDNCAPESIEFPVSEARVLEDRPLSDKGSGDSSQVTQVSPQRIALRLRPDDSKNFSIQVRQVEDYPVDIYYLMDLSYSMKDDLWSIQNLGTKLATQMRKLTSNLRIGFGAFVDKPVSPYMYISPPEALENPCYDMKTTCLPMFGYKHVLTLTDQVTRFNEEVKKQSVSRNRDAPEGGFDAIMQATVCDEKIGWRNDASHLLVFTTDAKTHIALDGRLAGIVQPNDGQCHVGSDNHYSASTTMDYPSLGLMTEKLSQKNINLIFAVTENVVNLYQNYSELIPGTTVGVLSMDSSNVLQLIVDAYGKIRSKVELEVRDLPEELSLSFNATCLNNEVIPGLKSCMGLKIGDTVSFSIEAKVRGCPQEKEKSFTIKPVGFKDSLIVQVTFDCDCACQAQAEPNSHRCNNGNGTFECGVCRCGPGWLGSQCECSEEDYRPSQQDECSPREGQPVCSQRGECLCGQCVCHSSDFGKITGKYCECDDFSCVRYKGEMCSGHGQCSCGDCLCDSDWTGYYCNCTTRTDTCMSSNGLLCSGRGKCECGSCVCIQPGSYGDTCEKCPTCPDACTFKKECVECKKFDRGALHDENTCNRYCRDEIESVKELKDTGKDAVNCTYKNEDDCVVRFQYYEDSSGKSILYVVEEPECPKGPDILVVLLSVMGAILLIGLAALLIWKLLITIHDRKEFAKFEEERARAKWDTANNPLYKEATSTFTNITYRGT
Kind of assay: phage panning on coated integrin. On the procedure:
as §1
Take CTRGDSIFC (on fuse 5 phage, fused to pIII) [CTRGDSIFC phage]: the binding result is recorded as “binds”.

Consider CLSRGDVVC (on fuse 5 phage, fused to pIII) [CLSRGDVVC phage], for which the binding result was “binds”.

With CRGDKGWNC (on fuse 5 phage, fused to pIII) [CRGDKGWNC phage], the binding result was “binds”.

Turning to CRGDGIRFC (on fuse 5 phage, fused to pIII) [CRGDGIRFC phage], the binding result is “binds”.

As for CARRLDAPC (on fuse 5 phage, fused to pIII) [CARRLDAPC phage], the binding result is reported as “binds”.

Turning to CRGDHGTLC (on fuse 5 phage, fused to pIII) [CRGDHGTLC phage], the binding result was “binds”.

Consider CFRGDDRKC (on fuse 5 phage, fused to pIII) [CFRGDDRKC phage], for which the binding result is listed as “binds”.

As to CTTRGDSFC (on fuse 5 phage, fused to pIII) [CTTRGDSFC phage], the binding result is “binds”.

Take CTTRSDSFC (on fuse 5 phage, fused to pIII) [CTTRSDSFC phage]: the binding result was “binds”.

Consider CVTRGDHFC (on fuse 5 phage, fused to pIII) [CVTRGDHFC phage], for which the binding result is listed as “binds”.

CTRGDSLDC (on fuse 5 phage, fused to pIII) [CTRGDSLDC phage]: the binding result is reported as “binds”.

On to CLRGDIANC (on fuse 5 phage, fused to pIII) [CLRGDIANC phage], for which the binding result was “binds”.

CLRRGDSGC (on fuse 5 phage, fused to pIII) [CLRRGDSGC phage]: the binding result is given as “binds”.

With CNRRGDNWGC (on fuse 5 phage, fused to pIII) [CNRRGDNWGC phage], the binding result was “binds”.

For CGRGDLIHC (on fuse 5 phage, fused to pIII) [CGRGDLIHC phage], the binding result was “binds”.

CEVRGDRIC (on fuse 5 phage, fused to pIII) [CEVRGDRIC phage]: the binding result is listed as “binds”.

With CRVRGDSWC (on fuse 5 phage, fused to pIII) [CRVRGDSWC phage], the binding result is on record as “binds”.

Take CRGDSHLQC (on fuse 5 phage, fused to pIII) [CRGDSHLQC phage]: the binding result was “binds”.

Consider CRGDAWPGC (on fuse 5 phage, fused to pIII) [CRGDAWPGC phage], for which the binding result is given as “binds”.

Regarding CNARGDKLC (on fuse 5 phage, fused to pIII) [CNARGDKLC phage], the binding result is given as “binds”.

Regarding CPRGDSTLC (on fuse 5 phage, fused to pIII) [CPRGDSTLC phage], the binding result is reported as “binds”.

For CGRGDSHHC (on fuse 5 phage, fused to pIII) [CGRGDSHHC phage], the binding result is listed as “binds”.

For CLRGDRVC (on fuse 5 phage, fused to pIII) [CLRGDRVC phage], the binding result is recorded as “binds”.

As for CISRGDTFC (on fuse 5 phage, fused to pIII) [CISRGDTFC phage (αvβ3 selection)], the binding result was “binds”.

As to CRGDNTFGC (on fuse 5 phage, fused to pIII) [CRGDNTFGC phage], the binding result is reported as “binds”.

Take CWRGDTPC (on fuse 5 phage, fused to pIII) [CWRGDTPC phage]: the binding result is “binds”.

On to CNIRGDKIC (on fuse 5 phage, fused to pIII) [CNIRGDKIC phage], for which the binding result is “binds”.

Regarding CSPRGDAGC (on fuse 5 phage, fused to pIII) [CSPRGDAGC phage], the binding result is given as “binds”.

Take CSRGDGRC (on fuse 5 phage, fused to pIII) [CSRGDGRC phage]: the binding result is given as “binds”.

CPSRGDALC (on fuse 5 phage, fused to pIII) [CPSRGDALC phage]: the binding result is “binds”.

On to CWSISPYFC (on fuse 5 phage, fused to pIII) [CWSISPYFC phage], for which the binding result was “binds”.

Take CPDLLAQSC (on fuse 5 phage, fused to pIII) [CPDLLAQSC phage]: the binding result is “binds”.

On to CYSLGFLVC (on fuse 5 phage, fused to pIII) [CYSLGFLVC phage], for which the binding result is on record as “binds”.

Take CLVLPSTGC (on fuse 5 phage, fused to pIII) [CLVLPSTGC phage]: the binding result is “binds”.

In the case of CRGDSLRC (on fuse 5 phage, fused to pIII) [CRGDSLRC phage], the binding result is given as “binds”.

CRGDTVYAC (on fuse 5 phage, fused to pIII) [CRGDTVYAC phage]: the binding result was “binds”.

Turning to CSRGDGAIC (on fuse 5 phage, fused to pIII) [CSRGDGAIC phage], the binding result is recorded as “binds”.

For the molecule CNARGDGFC (on fuse 5 phage, fused to pIII) [CNARGDGFC phage], the binding result is “binds”.

Consider CDRGDSQSC (on fuse 5 phage, fused to pIII) [CDRGDSQSC phage], for which the binding result is reported as “binds”.

For CAGRGDALC (on fuse 5 phage, fused to pIII) [CAGRGDALC phage], the binding result is given as “binds”.

Turning to CKTPGRLDC (on fuse 5 phage, fused to pIII) [CKTPGRLDC phage], the binding result is “binds”.

As for CWRGDRAC (on fuse 5 phage, fused to pIII) [CWRGDRAC phage], the binding result is “binds”.

With CSRGDTYLC (on fuse 5 phage, fused to pIII) [CSRGDTYLC phage], the binding result was “binds”.

With CQARGDRPRC (on fuse 5 phage, fused to pIII) [CQARGDRPRC phage], the binding result is given as “binds”.

Turning to CRGDSFVGC (on fuse 5 phage, fused to pIII) [CRGDSFVGC phage], the binding result is recorded as “binds”.

Regarding CVRRGDAFC (on fuse 5 phage, fused to pIII) [CVRRGDAFC phage], the binding result is given as “binds”.

Take CRGDLAWVC (on fuse 5 phage, fused to pIII) [CRGDLAWVC phage]: the binding result is “binds”.

For the molecule CTRRGDATC (on fuse 5 phage, fused to pIII) [CTRRGDATC phage], the binding result is reported as “binds”.

Take CRGDGRNC (on fuse 5 phage, fused to pIII) [CRGDGRNC phage]: the binding result is recorded as “binds”.
